Assay results published in patent US20160009789A1 (US Dept. of Health and Human Services, published 2016).

Assays:
full-length YU2 gp120 [1] = biological target: T1, full-length YU2 gp120 (HIV-1 strain YU2, UniProt P35961 32-498); test: SPR (Biacore)
T1 construct: domain: full-length gp120; also called wild-type gp120

full-length YU2 gp120 [2] = biological target: T1, full-length YU2 gp120; test: SPR (Biacore), 1:1 Langmuir fit

B1: VRC03 (antibody, V domains shown)
VH: QVQLVQSGAVIKTPGSSVKISCRASGYNFRDYSIHWVRLIPDKGFEWIGWIKPLWGAVSYARQLQGRVSMTRQLSQDPDDPDWGVAYMEFSGLTPADTAEYFCVRRGSCDYCGDFPWQYWGQGTVVVVSS
VL: EIVLTQSPGILSLSPGETATLFCKASQGGNAMTWYQKRRGQVPRLLIYDTSRRASGVPDRFVGSGSGTDFFLTINKLDREDFAVYYCQQFEFFGLGSELEVH
notes: also called mAb VRC03
fold lower affinity than VRC01 and VRC02 (full-length YU2 gp120 [1]): ~10 fold
Kd (full-length YU2 gp120 [2]): 73.1 nM
